Assay results reported in patent publication US20020123056.

Tests used:
[1] = target: T1, PKB-sub peptide (GSK3 consensus peptide) CKRPRAASFAE
T1 chain: CKRPRAASFAE

[2] = target: PDK1 peptide (PDKtide) …

B1: GST-SGK2 fusion protein (human SGK2 with N-terminal Glutathione S-transferase tag, expressed in Hi5 insect cells) (protein)
chain: MNSSPAGTPSPQPSRANGNINLGPSANPNAQPTDFDFLKVIGKGNYGKVLLAKRKSDGAFYAVKVLQKKSILKKKEQSHIMAERSVLLKNVRHPFLVGLRYSFQTPEKLYFVLDYVNGGELFFHLQRERRFLEPRARFYAAEVASAIGYLHSLNIIYRDLKPENILLDCQGHVVLTDFGLCKEGVEPEDTTSTFCGTPEYLAPEVLRKEPYDRAVDWWCLGAVLYEMLHGLPPFYSQDVSQMYENILHQPLQIPGGRTVAACDLLQSLLHKDQRQRLGSKADFLEIKNHVFFSPINWDDLYHKRLTPPFNPNVTGPADLKHFDPEFTQEAVSKSIGCTPDTVASSSGASSAFLGFSYAPEDDDILDC
in vitro kinase assay, 32P incorporation into peptide (purified SGK2) [1]: PKB-sub had significant incorporation of ^32P | in vitro kinase assay, PDK1-activated versus non-activated SGK2 [1]: the PDK1 activated SGK2 had significantly higher kinase activity compared to non-activated SGK2 | in vitro kinase assay, 32P incorporation into peptide (purified SGK2) [2]: addition of same amount of control peptide (PDK1 peptide) had no significant incorporation
